Experimental data from patent US20150065556A1, “THERAPEUTIC TARGETS FOR MITOCHONDRIAL DISORDERS” (Whitehead Institute for Biomedical Research, priority 2013, published 2015).
Blank lines part the entries; values can stand above or below the substance they belong to.

What was measured:
[1] = target: 60 kDa heat shock protein, mitochondrial (UniProt P10809); test: IP-MS, FLAG-OMP25TM bait (control)
[2] = target: ATP synthase subunit O, mitochondrial precursor (UniProt P48047); test: IP-MS, FLAG-OMP25TM bait (control)
ATP synthase subunit O, mitochondrial precursor, sequence (P48047 24-213 limits assumed): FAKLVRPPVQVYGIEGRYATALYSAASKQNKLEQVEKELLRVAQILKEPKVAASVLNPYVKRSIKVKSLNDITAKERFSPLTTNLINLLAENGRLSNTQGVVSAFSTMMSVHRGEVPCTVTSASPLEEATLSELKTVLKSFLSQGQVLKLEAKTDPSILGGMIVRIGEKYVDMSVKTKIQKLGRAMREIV

[3] = target: ATP synthase subunit alpha (UniProt P25705); test: IP-MS, FLAG-OMP25TM bait (control)
ATP synthase subunit alpha, sequence (P25705 44-553): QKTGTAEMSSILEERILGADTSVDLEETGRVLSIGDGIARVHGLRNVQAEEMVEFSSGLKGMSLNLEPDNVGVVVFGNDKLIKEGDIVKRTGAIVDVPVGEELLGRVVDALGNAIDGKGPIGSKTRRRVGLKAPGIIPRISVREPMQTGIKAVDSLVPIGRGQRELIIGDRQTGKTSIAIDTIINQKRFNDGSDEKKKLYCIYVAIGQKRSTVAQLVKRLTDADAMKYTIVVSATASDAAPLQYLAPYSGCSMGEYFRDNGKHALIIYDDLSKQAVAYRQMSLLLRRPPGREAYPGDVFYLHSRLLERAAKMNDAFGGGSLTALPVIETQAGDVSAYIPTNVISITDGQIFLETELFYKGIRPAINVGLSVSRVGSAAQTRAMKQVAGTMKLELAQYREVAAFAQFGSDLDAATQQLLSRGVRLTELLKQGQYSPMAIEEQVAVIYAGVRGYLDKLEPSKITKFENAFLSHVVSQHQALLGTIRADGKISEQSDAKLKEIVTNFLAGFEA

[4] = target: ATP synthase subunit b, mitochondrial precursor (UniProt P24539); test: IP-MS, FLAG-OMP25TM bait (control)
ATP synthase subunit b, mitochondrial precursor, sequence (P24539 43-256 limits assumed): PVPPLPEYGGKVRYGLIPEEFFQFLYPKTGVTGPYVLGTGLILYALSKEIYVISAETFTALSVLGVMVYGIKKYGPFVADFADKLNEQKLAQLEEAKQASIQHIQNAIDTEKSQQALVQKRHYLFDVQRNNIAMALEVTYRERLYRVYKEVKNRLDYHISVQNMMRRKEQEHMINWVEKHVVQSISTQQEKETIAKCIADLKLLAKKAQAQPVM

[5] = target: ATP synthase subunit beta (UniProt P06576); test: IP-MS, FLAG-OMP25TM bait (control)
ATP synthase subunit beta, sequence (P06576 48-529): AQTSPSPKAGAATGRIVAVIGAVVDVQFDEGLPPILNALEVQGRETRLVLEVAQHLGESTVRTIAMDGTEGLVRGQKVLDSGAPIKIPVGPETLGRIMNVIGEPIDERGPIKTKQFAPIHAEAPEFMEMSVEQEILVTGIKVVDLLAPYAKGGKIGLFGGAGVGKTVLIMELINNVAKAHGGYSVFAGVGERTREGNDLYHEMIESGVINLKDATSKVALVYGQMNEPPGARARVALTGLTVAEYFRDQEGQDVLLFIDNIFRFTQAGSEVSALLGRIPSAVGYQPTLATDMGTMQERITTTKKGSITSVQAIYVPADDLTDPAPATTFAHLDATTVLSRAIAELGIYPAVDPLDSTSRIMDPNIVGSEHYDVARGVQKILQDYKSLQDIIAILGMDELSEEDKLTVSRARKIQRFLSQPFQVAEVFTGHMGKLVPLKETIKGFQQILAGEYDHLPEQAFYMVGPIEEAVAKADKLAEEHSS

[6] = target: ATP synthase subunit d, mitochondrial isoform a (UniProt O75947); test: IP-MS, FLAG-OMP25TM bait (control)
ATP synthase subunit d, mitochondrial isoform a, sequence (O75947 2-161): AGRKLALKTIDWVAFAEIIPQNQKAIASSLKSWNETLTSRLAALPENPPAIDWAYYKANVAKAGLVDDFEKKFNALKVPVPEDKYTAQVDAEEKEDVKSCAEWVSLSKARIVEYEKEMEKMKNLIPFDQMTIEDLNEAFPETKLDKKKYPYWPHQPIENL

[7] = target: ATP synthase subunit g, mitochondrial (UniProt O75964); test: IP-MS, FLAG-OMP25TM bait (control)
ATP synthase subunit g, mitochondrial, sequence (O75964 2-103): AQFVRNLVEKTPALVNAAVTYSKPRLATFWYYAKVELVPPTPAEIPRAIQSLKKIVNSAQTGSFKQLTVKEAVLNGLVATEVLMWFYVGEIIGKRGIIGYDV

[8] = target: ATP synthase subunit gamma, isoform L (UniProt P36542); test: IP-MS, FLAG-OMP25TM bait (control)
ATP synthase subunit gamma, isoform L, sequence (P36542 26-298): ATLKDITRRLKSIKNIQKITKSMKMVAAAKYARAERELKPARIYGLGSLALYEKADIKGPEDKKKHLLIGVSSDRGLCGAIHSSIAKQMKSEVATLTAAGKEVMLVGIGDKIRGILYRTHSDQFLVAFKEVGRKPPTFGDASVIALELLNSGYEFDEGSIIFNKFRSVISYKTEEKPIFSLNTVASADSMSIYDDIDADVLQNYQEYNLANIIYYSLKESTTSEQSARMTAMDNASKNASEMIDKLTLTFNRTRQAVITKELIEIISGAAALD

[9] = target: ATPase inhibitor, mitochondria; isoform 1 (UniProt Q9UII2); test: IP-MS, FLAG-OMP25TM bait (control)
ATPase inhibitor, mitochondria; isoform 1, sequence (Q9UII2 26-106): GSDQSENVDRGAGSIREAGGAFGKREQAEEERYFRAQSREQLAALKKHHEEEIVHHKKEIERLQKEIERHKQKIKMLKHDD

[10] = target: UDP-glucose: glycoprotein glucosyltransferase 1 (UniProt Q9NYU2); test: IP-MS, FLAG-OMP25TM bait (control)
[11] = target: mitochondrial-processing peptidase subunit alpha (UniProt Q10713); test: IP-MS, FLAG-OMP25TM bait (control)
mitochondrial-processing peptidase subunit alpha, sequence (Q10713 34-525 limits assumed): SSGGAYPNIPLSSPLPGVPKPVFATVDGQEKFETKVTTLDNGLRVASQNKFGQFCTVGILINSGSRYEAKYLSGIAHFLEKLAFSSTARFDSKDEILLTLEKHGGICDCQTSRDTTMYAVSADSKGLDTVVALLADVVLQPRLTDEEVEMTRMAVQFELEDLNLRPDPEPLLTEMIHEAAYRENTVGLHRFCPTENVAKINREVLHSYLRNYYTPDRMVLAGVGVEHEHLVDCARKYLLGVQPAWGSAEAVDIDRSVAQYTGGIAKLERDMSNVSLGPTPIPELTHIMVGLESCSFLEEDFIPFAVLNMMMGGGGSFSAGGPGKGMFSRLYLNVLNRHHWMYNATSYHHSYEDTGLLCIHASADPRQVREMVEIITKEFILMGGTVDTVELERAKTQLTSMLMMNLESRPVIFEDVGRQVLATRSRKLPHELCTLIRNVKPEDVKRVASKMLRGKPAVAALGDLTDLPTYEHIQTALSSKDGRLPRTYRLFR

[12] = target: mitochondrial-processing peptidase subunit beta (UniProt O75439); test: IP-MS, FLAG-OMP25TM bait (control)
mitochondrial-processing peptidase subunit beta, sequence (O75439 44-489 limits assumed): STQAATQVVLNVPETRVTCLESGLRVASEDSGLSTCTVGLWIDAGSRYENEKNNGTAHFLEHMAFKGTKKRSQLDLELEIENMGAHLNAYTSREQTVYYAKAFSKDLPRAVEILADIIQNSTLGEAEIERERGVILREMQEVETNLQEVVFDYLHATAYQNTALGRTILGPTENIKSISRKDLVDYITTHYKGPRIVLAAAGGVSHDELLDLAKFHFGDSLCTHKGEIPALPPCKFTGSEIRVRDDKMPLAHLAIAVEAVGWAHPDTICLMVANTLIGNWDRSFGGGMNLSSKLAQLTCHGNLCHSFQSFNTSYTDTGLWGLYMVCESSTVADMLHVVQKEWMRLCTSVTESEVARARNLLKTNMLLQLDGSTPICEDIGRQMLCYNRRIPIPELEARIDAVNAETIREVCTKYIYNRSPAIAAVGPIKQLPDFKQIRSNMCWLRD

[13] = target: ornithine aminotransferase (UniProt P04181); test: IP-MS, FLAG-OMP25TM bait (control)
ornithine aminotransferase, sequence (P04181 26-439 limits assumed): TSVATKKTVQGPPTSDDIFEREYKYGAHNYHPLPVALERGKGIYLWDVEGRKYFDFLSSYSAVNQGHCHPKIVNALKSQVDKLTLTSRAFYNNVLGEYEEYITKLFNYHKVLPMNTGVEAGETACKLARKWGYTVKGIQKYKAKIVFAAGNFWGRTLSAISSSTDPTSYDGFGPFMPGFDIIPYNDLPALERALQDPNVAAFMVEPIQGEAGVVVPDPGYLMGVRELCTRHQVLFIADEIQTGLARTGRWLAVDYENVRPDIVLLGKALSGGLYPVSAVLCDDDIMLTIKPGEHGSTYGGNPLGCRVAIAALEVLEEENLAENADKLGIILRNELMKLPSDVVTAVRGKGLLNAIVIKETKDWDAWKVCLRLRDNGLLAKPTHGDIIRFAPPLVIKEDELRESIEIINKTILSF

protein zyg-11 homolog B [14] = target: protein zyg-11 homolog B (UniProt Q9C0D3); test: IP-MS, FLAG-OMP25TM bait (control)
protein zyg-11 homolog B, sequence (Q9C0D3 whole entry): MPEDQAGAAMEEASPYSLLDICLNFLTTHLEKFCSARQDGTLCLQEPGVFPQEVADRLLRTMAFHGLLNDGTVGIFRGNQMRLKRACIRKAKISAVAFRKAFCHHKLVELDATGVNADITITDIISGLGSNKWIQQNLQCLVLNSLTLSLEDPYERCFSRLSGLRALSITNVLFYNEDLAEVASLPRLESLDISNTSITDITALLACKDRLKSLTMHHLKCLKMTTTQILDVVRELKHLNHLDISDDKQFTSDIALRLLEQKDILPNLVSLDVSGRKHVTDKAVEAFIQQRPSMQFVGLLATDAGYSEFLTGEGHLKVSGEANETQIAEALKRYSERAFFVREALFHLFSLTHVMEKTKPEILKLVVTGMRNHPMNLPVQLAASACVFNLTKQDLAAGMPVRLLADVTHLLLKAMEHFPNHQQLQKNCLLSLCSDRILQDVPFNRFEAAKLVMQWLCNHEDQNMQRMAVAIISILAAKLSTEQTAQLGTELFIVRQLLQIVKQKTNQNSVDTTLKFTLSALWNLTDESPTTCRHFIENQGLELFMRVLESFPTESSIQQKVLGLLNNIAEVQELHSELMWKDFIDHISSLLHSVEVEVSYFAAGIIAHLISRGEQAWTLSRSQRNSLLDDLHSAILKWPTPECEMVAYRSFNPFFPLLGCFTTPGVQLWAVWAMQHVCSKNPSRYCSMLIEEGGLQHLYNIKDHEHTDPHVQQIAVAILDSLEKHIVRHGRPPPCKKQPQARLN

[15] = target: 60 kDa heat shock protein, mitochondrial (UniProt P10809); test: IP-MS with Flag tagged ATPIF1 as bait, no antimycin
[16] = target: ATP synthase subunit O, mitochondrial precursor (UniProt P48047); test: as above
[17] = target: ATP synthase subunit alpha (UniProt P25705); test: as above
[18] = target: ATP synthase subunit b, mitochondrial precursor (UniProt P24539); test: as above
[19] = target: ATP synthase subunit beta (UniProt P06576); test: as above
[20] = target: ATP synthase subunit d, mitochondrial isoform a (UniProt O75947); test: as above
[21] = target: ATP synthase subunit g, mitochondrial (UniProt O75964); test: as above
[22] = target: ATP synthase subunit gamma, isoform L (UniProt P36542); test: as above
[23] = target: ATPase inhibitor, mitochondria; isoform 1 (UniProt Q9UII2); test: as above
[24] = target: UDP-glucose: glycoprotein glucosyltransferase 1 (UniProt Q9NYU2); test: as above
[25] = target: mitochondrial-processing peptidase subunit alpha (UniProt Q10713); test: as above
[26] = target: mitochondrial-processing peptidase subunit beta (UniProt O75439); test: as above
[27] = target: ornithine aminotransferase (UniProt P04181); test: as above
protein zyg-11 homolog B [28] = target: protein zyg-11 homolog B (UniProt Q9C0D3); test: as above

60 kDa heat shock protein, mitochondrial, sequence (P10809 27-573 limits assumed): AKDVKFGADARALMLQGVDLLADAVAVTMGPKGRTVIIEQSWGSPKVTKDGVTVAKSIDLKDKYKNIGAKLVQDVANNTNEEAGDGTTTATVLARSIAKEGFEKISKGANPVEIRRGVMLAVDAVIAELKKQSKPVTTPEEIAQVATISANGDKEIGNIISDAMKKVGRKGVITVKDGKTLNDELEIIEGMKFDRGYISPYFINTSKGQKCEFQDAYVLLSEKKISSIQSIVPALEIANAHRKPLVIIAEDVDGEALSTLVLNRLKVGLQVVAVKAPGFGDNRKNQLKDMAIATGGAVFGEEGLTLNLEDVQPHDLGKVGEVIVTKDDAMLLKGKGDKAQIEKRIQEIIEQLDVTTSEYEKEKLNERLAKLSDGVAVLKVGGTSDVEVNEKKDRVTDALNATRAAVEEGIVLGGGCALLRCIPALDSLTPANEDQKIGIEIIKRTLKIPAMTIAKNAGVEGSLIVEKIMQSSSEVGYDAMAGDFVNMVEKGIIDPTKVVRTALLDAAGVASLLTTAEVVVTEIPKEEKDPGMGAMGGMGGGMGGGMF

IP-MS count (kind of count not given) [1]: 4 | IP-MS count (kind of count not given) [2]: 3 | IP-MS count (kind of count not given) [3]: 11 | IP-MS count (kind of count not given) [4]: 3 | IP-MS count (kind of count not given) [5]: 7 | IP-MS count (kind of count not given) [6]: 1 | IP-MS count (kind of count not given) [7]: 0 | IP-MS count (kind of count not given) [8]: 2 | IP-MS count (kind of count not given) [9]: 3 | IP-MS count (kind of count not given) [10]: 5 | IP-MS count (kind of count not given) [11]: 0 | IP-MS count (kind of count not given) [12]: 0 | IP-MS count (kind of count not given) [13]: 1 | IP-MS count (kind of count not given) (protein zyg-11 homolog B [14]): 0
Substance: FLAG-OMP25TM

IP-MS count (kind of count not given) [15]: 28 | IP-MS count (kind of count not given) [16]: 47 | IP-MS count (kind of count not given) [17]: 381 | IP-MS count (kind of count not given) [18]: 44 | IP-MS count (kind of count not given) [19]: 375 | IP-MS count (kind of count not given) [20]: 26 | IP-MS count (kind of count not given) [21]: 14 | IP-MS count (kind of count not given) [22]: 59 | IP-MS count (kind of count not given) [23]: 175 | IP-MS count (kind of count not given) [24]: 15 | IP-MS count (kind of count not given) [25]: 14 | IP-MS count (kind of count not given) [26]: 17 | IP-MS count (kind of count not given) [27]: 16 | IP-MS count (kind of count not given) (protein zyg-11 homolog B [28]): 19
Substance: Flag tagged ATPIF1 (from UniProt Q9UII2 26-106)
